Measured values reported in PMC5170609 (Molecular Biology of the Cell, 2016).

Experiments:
Experiment in all cases: ELISA
[1] = biological target: wild-type full-length desmin (recombinant) (UniProt P17661 1-470)
[2] = biological target: desmin T453I (recombinant, desminopathy-linked mutant) (UniProt P17661 1-470, T453I)
[3] = biological target: desmin E245D (recombinant, desminopathy-linked mutant) (UniProt P17661 1-470, E245D)
Chain of desmin E245D (recombinant, desminopathy-linked mutant) (P17661 whole entry E245D): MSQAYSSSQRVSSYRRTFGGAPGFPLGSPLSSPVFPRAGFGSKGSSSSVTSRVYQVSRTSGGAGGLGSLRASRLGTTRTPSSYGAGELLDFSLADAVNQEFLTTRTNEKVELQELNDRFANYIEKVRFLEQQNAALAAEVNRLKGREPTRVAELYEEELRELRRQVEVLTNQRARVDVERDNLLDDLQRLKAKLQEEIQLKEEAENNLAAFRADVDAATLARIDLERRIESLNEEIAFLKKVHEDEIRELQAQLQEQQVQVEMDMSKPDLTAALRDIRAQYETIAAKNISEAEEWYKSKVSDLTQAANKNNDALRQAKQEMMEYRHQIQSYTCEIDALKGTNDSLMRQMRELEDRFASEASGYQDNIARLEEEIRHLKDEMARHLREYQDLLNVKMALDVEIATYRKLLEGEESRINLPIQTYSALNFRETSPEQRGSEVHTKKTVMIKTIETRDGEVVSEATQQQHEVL

Chain of wild-type full-length desmin (recombinant) (P17661 whole entry): as the sequence (P17661 whole entry E245D) above, with D245E counted along it
Chain of desmin T453I (recombinant, desminopathy-linked mutant) (P17661 whole entry T453I): as the sequence (P17661 whole entry E245D) above, with D245E, T453I counted along it

B1: His-nebulette modules 1–5 (recombinant) (domain or fragment, UniProt O76041 32-213, looked up)
chain: PVIEDLSMELARKCTELISDIRYKEEFKKSKDKCTFVTDSPMLNHVKNIGAFISEAKYKGTIKADLSNSLYKRMPATIDSVFAGEVTQLQSEVAYKQKHDAAKGFSDYAHMKEPPEVKHAMEVNKHQSNISYRKDVQDTHTYSAELDRPDIKMATQISKIISNAEYKKGQGIMNKEPAVIGR
[1]
  Kd: 16 to 24 nM
[2]
  Kd: 3 nM
[3]
  Kd: 5 to 6 nM
